From patent US6555322B1, “α2-macroglobulin receptor as a receptor for CTGF” (FibroGen, Inc., priority 1999, dated 2003)

Experiments:
[1] = target: T1, CTGF receptor on MG63 cells (Homo sapiens, UniProt Q07954); experiment: Specificity of CTGF binding in the presence of known growth factors, cross-linking; settings: 200 pM 125I-CTGF, growth factor at 1 μg/ml
T1 construct: endogenous in cells; host or cells: MG63 human osteosarcoma cells
Description: The specificity of CTGF binding to the CTGF receptor was analyzed by performing an affinity binding experiment in the presence of a number of known growth factors. MG63 cells were labeled with 200 pM ^125I-CTGF in the presence of the indicated growth factor at 1 μg/ml. The cells were cross-linked with S-SMCC and the cell lysates were reduced prior to SDS-PAGE.

LRP = experiment: Cross-linking and equilibrium binding of 125I-rhCTGF on MEF1, PEA 10 and PEA 13 cells; parameters: species or system murine
Description: Three cell lines useful for a complete genetic system for the study of LRP function were generated by Willnow and Herz (1994, J. Cell Sci. 103:719-726) and obtained from the American Type Culture Collection (ATCC). The wild type line, MEF1, are fibroblasts originating from murine embryos and are homozygous positive for LRP expression. Fibroblasts that carry one or two copies of the defective LRP allele from hybrid embryos (see Herz et al.(1992) Cell. 71:411-21) were cultured in Pseudomonas exotoxin A (PEA) and the resistant clones, PEA 10 and PEA 13, which are heterozygous and homozygous, respectively, for LRP deficiency. Resistance to Pseudomonas exotoxin A by PEA 10 and PEA 13 cell lines, as well as sensitivity by MEF1 cells, was confirmed by growth in 30 ng/ml Pseudomonas exotoxin A after receipt from ATCC.
The three cell lines were cultured and plated for affinity binding with radiolabeled CTGF, cross-linking and gel analysis. Specifically, cross-linking of ^125I-rhCTGF to monolayers of MEF1, PEA 10 and PEA 13 cells were carried out as follows: Cells plated in 6-well dishes were incubated at 4° C. with 0.2 nM ^125I-rhCTGF in the presence (+) or absence (−) of a 200 fold excess of unlabeled rhCTGF in a binding buffer of PBS, 0.2% BSA, 0.02% sodium azide. After a 3 hour period of labeling, cells were cross-linked with 0.5 mM BS^3 for 15 minutes at room temperature. […]

LRP receptor = target: T2, LRP receptor (Mus musculus, UniProt Q91ZX7); experiment: Competitive binding and cross-linking of LRP ligands with 125I-CTGF on BMS-2 cells; parameters: species or system murine; settings: 50 pM 125I-CTGF; CTGF 21.5 nM, BP5 201-218 50 μg/ml, LF 25 μg/ml, apo E 20 μg/ml, LpL 20 μg/ml
T2 construct: endogenous in cells; host or cells: BMS2 (BMS-2) murine bone marrow stromal cells
T2 sequence (Q91ZX7 20-4545): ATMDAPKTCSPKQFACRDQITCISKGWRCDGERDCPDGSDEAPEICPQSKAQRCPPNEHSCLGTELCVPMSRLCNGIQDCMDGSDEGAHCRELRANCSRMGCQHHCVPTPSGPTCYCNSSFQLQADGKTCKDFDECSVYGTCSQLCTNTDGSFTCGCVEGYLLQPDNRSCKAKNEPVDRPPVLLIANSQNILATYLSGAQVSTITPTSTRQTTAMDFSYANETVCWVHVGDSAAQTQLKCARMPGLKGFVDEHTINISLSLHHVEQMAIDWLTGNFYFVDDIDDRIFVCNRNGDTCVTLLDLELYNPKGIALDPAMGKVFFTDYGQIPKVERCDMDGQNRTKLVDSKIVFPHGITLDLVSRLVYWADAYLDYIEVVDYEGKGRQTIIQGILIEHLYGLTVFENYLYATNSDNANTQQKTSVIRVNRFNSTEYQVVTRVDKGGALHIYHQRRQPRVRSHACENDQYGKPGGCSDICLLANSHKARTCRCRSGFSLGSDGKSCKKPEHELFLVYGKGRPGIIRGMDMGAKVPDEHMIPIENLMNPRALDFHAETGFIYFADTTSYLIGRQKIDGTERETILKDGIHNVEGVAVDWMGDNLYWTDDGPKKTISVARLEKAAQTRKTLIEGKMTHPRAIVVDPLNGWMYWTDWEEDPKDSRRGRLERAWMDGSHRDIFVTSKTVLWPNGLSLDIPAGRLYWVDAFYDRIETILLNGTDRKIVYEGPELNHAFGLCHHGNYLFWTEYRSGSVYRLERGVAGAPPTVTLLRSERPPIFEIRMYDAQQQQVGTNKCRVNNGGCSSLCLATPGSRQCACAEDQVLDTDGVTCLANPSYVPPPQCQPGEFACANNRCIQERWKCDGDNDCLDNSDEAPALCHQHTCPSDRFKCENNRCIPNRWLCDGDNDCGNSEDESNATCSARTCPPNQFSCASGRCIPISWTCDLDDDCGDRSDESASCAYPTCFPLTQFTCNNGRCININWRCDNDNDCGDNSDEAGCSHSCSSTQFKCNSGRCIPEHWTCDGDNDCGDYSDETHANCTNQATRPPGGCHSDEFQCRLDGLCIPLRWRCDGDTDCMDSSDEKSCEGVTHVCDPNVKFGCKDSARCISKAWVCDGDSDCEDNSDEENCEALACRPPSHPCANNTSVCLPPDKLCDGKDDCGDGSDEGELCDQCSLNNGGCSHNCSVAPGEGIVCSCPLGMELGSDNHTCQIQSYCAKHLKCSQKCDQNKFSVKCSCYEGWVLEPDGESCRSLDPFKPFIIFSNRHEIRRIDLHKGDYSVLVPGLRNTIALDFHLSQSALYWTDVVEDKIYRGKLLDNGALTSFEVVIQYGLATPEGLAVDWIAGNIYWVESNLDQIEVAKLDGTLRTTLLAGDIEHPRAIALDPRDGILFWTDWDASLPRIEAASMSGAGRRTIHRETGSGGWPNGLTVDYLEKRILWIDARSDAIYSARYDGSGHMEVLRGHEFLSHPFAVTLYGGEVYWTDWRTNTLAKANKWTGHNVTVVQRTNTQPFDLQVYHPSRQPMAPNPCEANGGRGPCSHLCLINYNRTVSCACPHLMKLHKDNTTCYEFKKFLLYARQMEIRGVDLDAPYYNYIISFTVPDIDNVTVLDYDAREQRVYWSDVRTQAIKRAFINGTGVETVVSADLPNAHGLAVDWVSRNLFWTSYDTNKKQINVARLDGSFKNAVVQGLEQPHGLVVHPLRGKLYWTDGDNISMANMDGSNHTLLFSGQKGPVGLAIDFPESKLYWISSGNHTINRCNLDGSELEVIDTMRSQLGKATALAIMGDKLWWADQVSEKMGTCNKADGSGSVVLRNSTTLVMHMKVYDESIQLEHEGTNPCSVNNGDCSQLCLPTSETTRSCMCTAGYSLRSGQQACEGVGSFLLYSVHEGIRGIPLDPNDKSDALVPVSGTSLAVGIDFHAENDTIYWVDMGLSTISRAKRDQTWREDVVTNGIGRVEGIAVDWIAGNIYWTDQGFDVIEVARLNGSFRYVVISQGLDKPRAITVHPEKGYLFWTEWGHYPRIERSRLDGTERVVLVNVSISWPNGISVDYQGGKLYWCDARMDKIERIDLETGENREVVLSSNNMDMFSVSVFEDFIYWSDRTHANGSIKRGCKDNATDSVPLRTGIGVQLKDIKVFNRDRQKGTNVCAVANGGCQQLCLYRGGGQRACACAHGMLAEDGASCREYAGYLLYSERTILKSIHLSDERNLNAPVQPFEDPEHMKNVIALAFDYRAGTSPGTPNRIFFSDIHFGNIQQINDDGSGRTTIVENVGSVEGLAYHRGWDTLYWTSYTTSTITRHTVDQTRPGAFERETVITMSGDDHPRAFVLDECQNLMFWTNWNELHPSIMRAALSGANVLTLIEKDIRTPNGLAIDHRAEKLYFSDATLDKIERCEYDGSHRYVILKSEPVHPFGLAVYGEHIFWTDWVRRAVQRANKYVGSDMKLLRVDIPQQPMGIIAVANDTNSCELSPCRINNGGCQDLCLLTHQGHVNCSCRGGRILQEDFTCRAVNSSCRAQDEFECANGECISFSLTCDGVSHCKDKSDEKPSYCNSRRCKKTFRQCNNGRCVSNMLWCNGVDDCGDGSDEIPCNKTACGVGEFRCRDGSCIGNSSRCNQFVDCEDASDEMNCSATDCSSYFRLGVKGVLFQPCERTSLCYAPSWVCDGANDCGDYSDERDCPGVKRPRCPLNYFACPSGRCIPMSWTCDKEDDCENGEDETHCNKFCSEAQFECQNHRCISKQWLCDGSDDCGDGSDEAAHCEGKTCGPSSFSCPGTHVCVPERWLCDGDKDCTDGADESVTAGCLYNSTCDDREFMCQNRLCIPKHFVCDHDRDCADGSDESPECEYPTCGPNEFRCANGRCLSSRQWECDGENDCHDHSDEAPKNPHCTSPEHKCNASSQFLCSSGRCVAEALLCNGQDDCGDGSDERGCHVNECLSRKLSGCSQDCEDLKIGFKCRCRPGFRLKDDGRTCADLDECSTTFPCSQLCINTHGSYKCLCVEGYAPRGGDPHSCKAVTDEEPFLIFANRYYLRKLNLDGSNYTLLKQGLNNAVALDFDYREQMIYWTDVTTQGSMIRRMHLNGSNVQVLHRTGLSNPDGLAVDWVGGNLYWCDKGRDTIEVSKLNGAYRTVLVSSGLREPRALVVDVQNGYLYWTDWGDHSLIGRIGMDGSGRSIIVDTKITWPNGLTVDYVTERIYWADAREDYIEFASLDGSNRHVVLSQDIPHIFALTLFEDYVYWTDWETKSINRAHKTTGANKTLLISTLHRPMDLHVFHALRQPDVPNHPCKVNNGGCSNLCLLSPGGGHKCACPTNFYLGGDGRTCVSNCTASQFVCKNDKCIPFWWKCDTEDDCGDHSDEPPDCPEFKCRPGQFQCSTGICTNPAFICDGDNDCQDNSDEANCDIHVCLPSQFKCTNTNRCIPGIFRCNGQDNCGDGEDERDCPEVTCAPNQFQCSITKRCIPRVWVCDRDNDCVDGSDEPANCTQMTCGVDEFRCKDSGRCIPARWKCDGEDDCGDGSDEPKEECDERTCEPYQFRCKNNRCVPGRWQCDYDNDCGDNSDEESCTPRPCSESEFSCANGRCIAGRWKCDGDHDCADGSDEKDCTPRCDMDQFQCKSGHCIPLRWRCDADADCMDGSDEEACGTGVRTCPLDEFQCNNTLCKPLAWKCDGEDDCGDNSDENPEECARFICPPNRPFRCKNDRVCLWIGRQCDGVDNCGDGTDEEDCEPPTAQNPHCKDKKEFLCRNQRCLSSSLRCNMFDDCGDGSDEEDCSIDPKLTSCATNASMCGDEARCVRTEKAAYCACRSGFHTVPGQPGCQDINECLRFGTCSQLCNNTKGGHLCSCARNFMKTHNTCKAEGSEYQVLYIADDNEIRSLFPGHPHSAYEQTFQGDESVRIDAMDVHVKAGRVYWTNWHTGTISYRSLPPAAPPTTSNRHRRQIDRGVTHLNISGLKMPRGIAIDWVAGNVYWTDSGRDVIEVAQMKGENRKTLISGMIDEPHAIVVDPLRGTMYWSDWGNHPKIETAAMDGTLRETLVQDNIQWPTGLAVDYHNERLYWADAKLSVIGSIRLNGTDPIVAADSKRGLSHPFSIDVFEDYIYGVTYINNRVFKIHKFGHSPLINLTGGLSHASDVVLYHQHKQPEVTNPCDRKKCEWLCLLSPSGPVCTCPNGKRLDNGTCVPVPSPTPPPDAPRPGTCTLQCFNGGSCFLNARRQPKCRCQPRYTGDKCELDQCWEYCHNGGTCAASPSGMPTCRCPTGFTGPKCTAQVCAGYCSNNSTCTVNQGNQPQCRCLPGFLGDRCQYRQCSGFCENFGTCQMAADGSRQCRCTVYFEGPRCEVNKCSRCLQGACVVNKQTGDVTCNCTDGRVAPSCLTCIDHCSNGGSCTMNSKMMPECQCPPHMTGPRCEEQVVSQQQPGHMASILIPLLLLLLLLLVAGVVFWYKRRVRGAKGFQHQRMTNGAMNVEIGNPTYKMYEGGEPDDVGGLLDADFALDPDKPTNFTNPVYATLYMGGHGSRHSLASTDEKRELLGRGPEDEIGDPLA
Description: To examine whether ligands known to bind to LRP inhibit CTGF binding, BMS-2 cells were labeled with 50 pM ^125I-CTGF in the presence or absence of unlabeled ligand (CTGF: 21.5 nM; BP5^201-218: 50 μg/ml or […] (Campbell and Andress, 1997, Am. J. Physiol., 273:E1005-13); lactoferrin (LF): 25 μg/ml or 250 nM; apo E: 20 μg/ml or 574 nM; lipoprotein lipase (LpL): 20 μg/ml or 400 nM). The cells were cross-linked and the receptor complexes were solubilized, processed on SDS-PAGE and visualized by autoradiography.

MG63 cells [2] = experiment: Internalization and degradation kinetics of 125I-CTGF with heparin or lactoferrin; assay type: cell-based, human
Description: Experiments were performed in which the internalization and degradation kinetics of CTGF were followed in the presence or absence of a known LRP ligand, lactoferrin. Kinetics were followed in the presence or absence of 3 μg/ml heparin or lactoferrin. ^125I-CTGF was bound to MG63 cells at 4° C. and free CTGF was removed by washing the cells. Fresh medium was placed on the cells, and the cells were transferred to 37° C. At each time point, the medium was removed and TCA precipitated. Degraded ^125I-CTGF was quantified by measuring the cpm in the non-precipitable fraction (see FIG. 17). In parallel experiments, ^125I-CTGF was bound to MG63 cells at 4° C. and free CTGF was removed by washing the cells. Fresh medium was placed on the cells, and they were transferred to 37° C. At each time point, the cell layer was removed by extensive trypsinization at 4° C. The cells were centrifuged and the cpm associated with the pellet, the internalized fraction, was determined (see FIG. 18).

CTGF receptor = experiment: Cell survey of CTGF cross-linked receptor complexes; assay type: binding
MG63 cells [3] = experiment: Internalization and degradation of 125I-rhCTGF during binding, with additives; assay type: cell-based, human; settings: two hour incubation at 37° C.
[4] = target: T3, high Mr CTGF binding protein on BMS-2 cells (Mus musculus, UniProt Q91ZX7); experiment: Binding analysis of 125I-CTGF competition with LRP ligands on BMS-2 cells; parameters: species or system murine; settings: 0.1 nM 125I-CTGF
T3 construct: endogenous in cells; host or cells: BMS2 (BMS-2) murine bone marrow stromal cells
T3 sequence (Q91ZX7 20-4545): as above
Description: BMS-2 cells were incubated with 0.1 nM ^125I-CTGF in the presence of unlabeled CTGF, recombinant human apoE, low density lipoprotein purified from human plasma (LDL), or lipoprotein lipase purified from bovine milk (LpL).

MG63 cells [5] = experiment: Internalization and degradation time course of 125I-rhCTGF after TGF-β treatment; assay type: cell-based, human
Description: To examine whether LRP function was altered by TGF-β treatment, the following experiments were conducted. MG63 cells were plated at 2.5×10^4 cells/cm^2 in MEM with 10% FBS. The following day, the cells were rinsed with MEM containing 0.5% MEM and incubated in this low serum medium with or without 20 ng/ml of TGF-β2. At 24 or 48 hours the cells were rinsed twice with binding medium, then incubated at 4° C. for 3 hours with 0.2 nM ^125I-rhCTGF. After incubation, the cells were rinsed 4 times with binding buffer at 4° C., then fresh binding buffer pre-warmed to 37° C. was added and the cells continued incubation at 37° C. At time points of 0, 15, 30, 60, 120 and 180 min, the media were collected and processed by precipitation with 10% TCA. The cell layer was processed by trypsination of the cells. Pellets and supernatants were separated and counted for each point.

MG63 cells [6] = experiment: Protein synthesis in the presence of PEA as measure of LRP internalization activity; assay type: cell-based, human; settings: 20 ng/ml TGF-β for 48 hours, 14C-amino acid pulse
Description: Pseudomonas exotoxin A (PEA) is a ligand for LRP, and following internalization is degraded in lysosomes. One of the degradation products contains PEA domain III, which promotes ADP-ribosylation of elongation factor-2, inhibiting protein synthesis. Protein synthesis in the presence of various concentrations of PEA was used to measure the internalization activity of LRP. To test whether TGF-β altered LRP activity for PEA internalization, MG63 cells were treated with 20 ng/ml TGF-β for 48 hours, then treated with various concentrations of PEA. After 2 hours, protein synthesis was monitored with an overnight pulse of ^14C-amino acids. The cell layers were extracted with 10% trichloroacetic acid and counted.

[7] = 20 ng/ml TGF-β2, 48 hour exposure

B1: connective tissue growth factor (protein)
chain: QNCSGPCRCPDEPAPRCPAGVSLVLDGCGCCRVCAKQLGELCTERDPCDPHKGLFCHFGSPANRKIGVCTAKDGAPCIFGGTVYRSGESFQSSCKYQCTCLDGAVGCMPLCSMDVRLPSPDCPFPRRVKLPGKCCEEWVCDEPKDQTVVGPALAAYRLEDTFGPDPTMIRANCLVQTTEWSACSKTCGMGISTRVTNDNASCRLEKQSRLCMVRPCEADLEENIKKGKKCIRTPKISKPIKFELSGCTSMKTYRAKFCGVCTDGRCCTPHRTTTLPVEFKCPDGEVMKKNMMFIKTCACHYNCPGDNDIFESLYYRKMYGDMA
notes: recombinant human CTGF produced in baculovirus-infected Hi 5 insect cells, also used radioiodinated
For B1, the “competition for CTGF binding to the cell surface” value [1] was “effectively competed”, the “cross-linked signal co-migrating with the complex, PEA 13 cells” value (LRP; 0.2 nM 125I-rhCTGF, BS3, overexposed autoradiograph) was “no signal” and the “CTGF binding on PEA 13 cells” value (LRP; PEA 13, homozygous LRP deficient) was “no binding was detected”. For the same molecule, the “competing the binding to the LRP receptor” value (“competing the binding” below) (LRP receptor) was “most effective”, the “time of internalization of CTGF” value (MG63 cells [2]; 37° C. after binding at 4° C.) was ≤ 30 min and the “cross-linking of CTGF to CHO and MLEC cells” value (CTGF receptor) was “did not appear to cross-link”. For the same molecule, the “CTGF specifically internalized, control cells” value (MG63 cells [3]; 0.2 nM 125I-rhCTGF, no TGF-β) was “approximately 260 fmoles CTGF/mg cell protein” and the “CTGF degraded, control cells” value (MG63 cells [3]; no TGF-β) was “About 1000 fmoles/mg cell protein”.

B2: lipoprotein lipase (protein)
chain: DRITGGKDFRDIESKFALRTPEDTAEDTCHLIPGVTESVANCHFNHSSKTFVVIHGWTVTGMYESWVPKLVAALYKREPDSNVIVVDWLSRAQQHYPVSAGYTKLVGQDVAKFMNWMADEFNYPLGNVHLLGYSLGAHAAGIAGSLTNKKVNRITGLDPAGPNFEYAEAPSRLSPDDADFVDVLHTFTRGSPGRSIGIQKPVGHVDIYPNGGTFQPGCNIGEALRVIAERGLGDVDQLVKCSHERSVHLFIDSLLNEENPSKAYRCNSKEAFEKGLCLSCRKNRCNNMGYEINKVRAKRSSKMYLKTRSQMPYKVFHYQVKIHFSGTESNTYTNQAFEISLYGTVAESENIPFTLPEVSTNKTYSFLLYTEVDIGELLMLKLKWISDSYFSWSNWWSSPGFDIGKIRVKAGETQKKVIFCSREKMSYLQKGKSPVIFVKCHDKSLNRKSG
notes: lipoprotein lipase purified from bovine milk, known LRP ligand
In the case of B2, the “competition with 125I-CTGF” value [4] is reported as “competed” and the “competing the binding” value (LRP receptor) is reported as “very effective in competing”.

B3: transforming growth factor beta (protein)
chain: ALDAAYCFRNVQDNCCLRPLYIDFKRDLGWKWIHEPKGYNANFCAGACPYLWSSDTQHSRVLSLYNTINPEASASPCCVSQDLEPLTILYYIGKTPKIEQLSNMIVKSCKCS
notes: growth factor, 20 ng/ml TGF-β2 used to treat MG63 cells
B3 was tested, and the “degradation of 125I-CTGF, control cells relative to TGF-β treated cells” value (MG63 cells [5]; [7]) was “at least 3 fold”, the “internalization of CTGF in TGF-β treated cells” value (MG63 cells [5]; [7]) was “more modest internalization” and the “internalization and degradation of CTGF by CTGF receptor (LRP), lower in TGF-β treated cells” value (MG63 cells [5]; TGF-β treated versus control cells) was “about 3 fold”. For the same molecule, the “sensitivity to PEA, TGF-β treated cells less sensitive than control cells” value (MG63 cells [6]) was “about 3 fold”, the “CTGF degraded, TGF-β treated cells” value (MG63 cells [3]; 48 hours post-TGF-β exposure) was 400 fmol and the “CTGF specifically internalized, TGF-β treated cells” value (MG63 cells [3]; 48 hours post-TGF-β exposure) was “about 150 fmoles”.

B4: lactoferrin (protein, UniProt P02788 20-710, looked up)
Lactotransferrin: GRRRSVQWCAVSQPEATKCFQWQRNMRKVRGPPVSCIKRDSPIQCIQAIAENRADAVTLDGGFIYEAGLAPYKLRPVAAEVYGTERQPRTHYYAVAVVKKGGSFQLNELQGLKSCHTGLRRTAGWNVPIGTLRPFLNWTGPPEPIEAAVARFFSASCVPGADKGQFPNLCRLCAGTGENKCAFSSQEPYFSYSGAFKCLRDGAGDVAFIRESTVFEDLSDEAERDEYELLCPDNTRKPVDKFKDCHLARVPSHAVVARSVNGKEDAIWNLLRQAQEKFGKDKSPKFQLFGSPSGQKDLLFKDSAIGFSRVPPRIDSGLYLGSGYFTAIQNLRKSEEEVAARRARVVWCAVGEQELRKCNQWSGLSEGSVTCSSASTTEDCIALVLKGEADAMSLDGGYVYTAGKCGLVPVLAENYKSQQSSDPDPNCVDRPVEGYLAVAVVRRSDTSLTWNSVKGKKSCHTAVDRTAGWNIPMGLLFNQTGSCKFDEYFSQSCAPGSDPRSNLCALCIGDEQGENKCVPNSNERYYGYTGAFRCLAENAGDVAFVKDVTVLQNTDGNNNEAWAKDLKLADFALLCLDGKRKPVTEARSCHLAMAPNHAVVSRMDKVERLKQVLLHQQAKFGRNGSDCPDKFCLFQSETKNLLFNDNTECLARLHGKTTYEKYLGPQYVAGITNLKKCSTSPLLEACEFLRK
notes: known LRP ligand
With B4 the “competing the binding” value (LRP receptor) was “very effective in competing”, the “rate of degradation of CTGF” value (MG63 cells [2]; 3 μg/ml heparin or lactoferrin) was “reduced the rate” and the “rate of internalization of CTGF” value (MG63 cells [2]; 3 μg/ml heparin or lactoferrin) was “reduced the rate”.
